Data as given in US20220229068A1, “DETECTION OF PROTEIN TO PROTEIN INTERACTIONS” (THE GOVERNING COUNCIL OF THE UNIVERSITY OF TORONTO, priority 2019, published 2022).

B1: WT form of GP41-1: natural GP41-1 split intein, split at C37 (SEQ ID NO: 1, 2) (protein)
chain 1: CLDLKTQVQTPQGMKEISNIQVGDLVLSNTGYNEVLNVFPKSKKKSYKITLEDGKEIICSEEHLFPTQTGEMNISGGLKEGMCLYVKE
chain 2: MMLKKILKIEELDERELIDIEVSGNHLFYANDILTHN
modifications: Synthetic GP41-1 IN (WT); Synthetic GP41-1 IC (WT)
B2: C25 split intein: IC aa13-aa37 of WT IC; IN aa1-aa88 of WT IN + aa1-aa12 of WT IC (SEQ ID NO: 3, 4) (protein)
chain 1: CLDLKTQVQTPQGMKEISNIQVGDLVLSNTGYNEVLNVFPKSKKKSYKITLEDGKEIICSEEHLFPTQTGEMNISGGLKEGMCLYVKEMMLKKILKIEEL
chain 2: DERELIDIEVSGNHLFYANDILTHN
modifications: Synthetic GP41-1 IN (C25); Synthetic GP41-1 IC (C25)

Target: T1, FRB/FKBP1A interaction (Homo sapiens, UniProt P42345+P62942)
T1 construct: expressed in transfected cells; host or cells: HEK 293 (also HeLa, PC9)
T1 sequence (P42345 with tags, fused parts or gaps): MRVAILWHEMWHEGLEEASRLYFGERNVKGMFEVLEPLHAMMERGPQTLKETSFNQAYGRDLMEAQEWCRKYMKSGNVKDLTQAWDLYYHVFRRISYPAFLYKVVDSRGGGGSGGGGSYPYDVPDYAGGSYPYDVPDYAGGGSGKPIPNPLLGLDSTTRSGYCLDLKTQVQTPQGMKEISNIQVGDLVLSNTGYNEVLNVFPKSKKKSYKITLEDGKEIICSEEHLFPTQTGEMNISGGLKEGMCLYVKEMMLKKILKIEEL
T1 sequence (P62942 with tags, fused parts or gaps): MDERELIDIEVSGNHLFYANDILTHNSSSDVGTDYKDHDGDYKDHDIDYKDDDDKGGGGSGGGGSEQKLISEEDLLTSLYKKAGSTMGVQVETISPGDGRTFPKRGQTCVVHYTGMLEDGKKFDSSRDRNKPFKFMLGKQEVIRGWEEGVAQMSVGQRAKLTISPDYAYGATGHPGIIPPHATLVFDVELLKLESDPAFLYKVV
Type: cell-based
Details: FRB-IN/IC-FKBP1A in HEK 293, Western blot
Description: Cell culture and treatment. […] These cells were grown in DMEM supplemented with 10% fetal calf serum (Life Technologies). […] For ELISA assay, cells were seeded in 96 well (Sarstedt AG & Co) or 384 well plates (Greiner Bio-One) with 15,000 (96 well) or 5,000 (384 well) cells per well. Cells were transfected with various plasmids with polyethylenimine (PEI) Max (Polysciences) [40]. Expression in HEK 293 Flp-In T-Rex cells was induced by treating the cells with tetracycline (1 μg/ml) for 6-16 hrs. […] Stable cell lines were created according to the manual of Flp-In T-REx (Invitrogen). Briefly, plasmid containing both bait and prey DNA and pOG44 plasmid (1:10 ratio) were cotransfected into HEK 293 Flp-In T-Rex cells.
Western blot analysis and immunoprecipitation. Cells were lysed in buffer H (Triton X 100 1%, β-glycerophosphate pH7.3 50 mM, EGTA 1.5 mM, EDTA 1 mM, orthovanadate 0.1 mM, DTT 1 mM supplemented with protease inhibitors (Roche)). After centrifugation at 21,000×g for 10 min, the supernatants were mixed with Laemmli sample buffer, boiled at 95° C. for 3-5 min and subjected to Western blot analysis. For immunoprecipitations, supernatants (0.3 ml) were incubated with antibodies at 4° C. with rotation for one hour, followed by another hour of incubation with protein G sepharose beads (GE Healthcare). […]

Molecule | self-association / splicing in the absence of rapamycin
B1 | relatively high level of FRB/FKBP1A splicing even in the absence of rapamycin treatment
B2 | minimal self-association
